No end group written: not given here.
Key:
[1] = molecular target: recombinant isoform of human Angiotensin Converting Enzyme (rhACE) corresponding to the ectodomain somatic ACE (human), P12821; assay: cell-based or functional assay
[2] = molecular target: recombinant isoform of human Angiotensin Converting Enzyme (rhACE) corresponding to the ectodomain somatic ACE (human) (UniProt P12821); assay: cell-based or functional assay
[3] = molecular target: recombinant isoform of human Angiotensin Converting Enzyme (rhACE) corresponding to the ectodomain somatic ACE (human) (UniProt P12821); assay: Enzyme inhibition of rhACE with fluorogenic substrate, Dixon plot and KI=IC50/(1+[S]/Km); 45 min pre-incubation, hydrolytic conditions

Sequence of recombinant isoform of human Angiotensin Converting Enzyme (rhACE) corresponding to the ectodomain somatic ACE (human), P12821 (P12821 30-1256): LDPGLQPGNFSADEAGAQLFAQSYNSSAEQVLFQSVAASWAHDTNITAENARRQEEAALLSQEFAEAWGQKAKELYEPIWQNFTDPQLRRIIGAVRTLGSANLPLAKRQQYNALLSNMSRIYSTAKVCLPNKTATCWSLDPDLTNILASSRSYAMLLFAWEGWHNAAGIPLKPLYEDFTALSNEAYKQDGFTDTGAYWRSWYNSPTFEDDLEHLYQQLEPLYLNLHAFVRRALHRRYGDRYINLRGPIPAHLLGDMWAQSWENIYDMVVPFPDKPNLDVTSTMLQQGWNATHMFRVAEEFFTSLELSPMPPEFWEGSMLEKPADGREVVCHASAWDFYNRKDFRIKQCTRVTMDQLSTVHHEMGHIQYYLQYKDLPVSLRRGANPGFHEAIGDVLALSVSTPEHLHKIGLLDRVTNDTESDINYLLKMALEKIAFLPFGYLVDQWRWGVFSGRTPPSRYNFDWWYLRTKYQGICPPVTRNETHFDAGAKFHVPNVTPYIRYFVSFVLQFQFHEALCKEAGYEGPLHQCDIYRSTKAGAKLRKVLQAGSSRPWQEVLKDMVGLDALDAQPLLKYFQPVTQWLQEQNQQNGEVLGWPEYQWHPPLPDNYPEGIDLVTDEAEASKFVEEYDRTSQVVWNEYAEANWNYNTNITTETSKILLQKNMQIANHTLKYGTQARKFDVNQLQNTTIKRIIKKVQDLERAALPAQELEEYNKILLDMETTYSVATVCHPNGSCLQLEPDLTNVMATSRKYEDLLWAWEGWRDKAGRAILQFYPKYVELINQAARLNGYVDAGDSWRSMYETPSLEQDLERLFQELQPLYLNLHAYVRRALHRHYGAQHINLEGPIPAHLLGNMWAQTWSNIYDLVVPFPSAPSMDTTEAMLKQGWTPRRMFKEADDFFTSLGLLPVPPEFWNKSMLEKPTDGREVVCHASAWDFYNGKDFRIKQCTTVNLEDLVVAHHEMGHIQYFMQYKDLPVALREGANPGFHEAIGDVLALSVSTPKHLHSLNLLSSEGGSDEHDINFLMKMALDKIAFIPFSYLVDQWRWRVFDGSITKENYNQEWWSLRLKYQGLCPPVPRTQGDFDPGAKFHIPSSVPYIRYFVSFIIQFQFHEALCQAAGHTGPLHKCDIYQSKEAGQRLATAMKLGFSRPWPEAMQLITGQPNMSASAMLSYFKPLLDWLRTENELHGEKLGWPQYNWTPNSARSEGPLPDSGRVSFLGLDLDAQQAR
Sequence of recombinant isoform of human Angiotensin Converting Enzyme (rhACE) corresponding to the ectodomain somatic ACE (human) (P12821 30-1256): as above

| IC50 of rhACE inhibition (fluorogenic substrate cleavage) [1] | IC50 of rhACE inhibition (fluorogenic substrate cleavage) [2] | Ki [3] | Binder |
| --- | --- | --- | --- |
| > 100 µM | – | – | KGHK [LysGlyHisLys (KGHK) peptide, metal-free] |
| – | 11 µM | 4 µM | KGHK (also: Cu(II) complex bound by ATCUN motif (free N-term, two peptide N, His3)) [[KGHK-Cu]+ copper(II) complex of KGHK] |
| > 100 µM | – | – | YIHPF (also: Cu(II) complex bound by ATCUN motif) [[YIHPF-Cu]- copper(II) complex of YIHPF] |
| > 100 µM | – | – | Gly-Gly-His (also: Cu(II) complex bound by ATCUN motif) [[GGH-Cu]- copper(II) complex of GGH] |
| > 100 µM | – | – | GGH [GlyGlyHis (GGH) peptide, metal-free] |
| > 100 µM | – | – | YIHPF [TyrIleHisProPhe (YIHPF, Angiotensin II 4-8) peptide, metal-free] |
